# According to patent US20030077318A1:
# Target: soluble H-2K^b (K^bsol), heterodimer of truncated K^b heavy chain and murine β-2 microglobulin, purified empty from Drosophila cells (murine) (UniProt P01901)
# Experiment: competitive RIA against [^125I]VSV-8 on K^bsol, P30 gel filtration, 23° C.
row,Substance,Kd [nM]
1,OVA-8 (peptide),4.1
2,OVA-10C (peptide),14
3,OVA-10N (peptide),280
4,OVA-9C (peptide),11
